Reference: doi:10.1101/2022.06.28.498018 (bioRxiv, 2022)

Assays:
[1] = biological target: P116 variant Trp681Ala (Mycoplasma pneumoniae) (UniProt P75556); assay: SEC-MALS
cryo-EM structure = biological target: the molecule itself; assay: cryo-EM structure

Row | Molecule | ratio of dimers to monomers (dimers per monomer) [1] | stoichiometry N (cryo-EM structure)
1 | P116 variant Trp681Ala (from UniProt P75556 30-957) (domain or fragment) | 0.25 | 
2 | P116 ectodomain (residues 30-957) from Mycoplasma pneumoniae (domain or fragment, UniProt P75556 30-957, looked up) NKTHQVEHESEQSDFQDIRFGLNSVKLPKAQPAAATRITVENGTDKLVNYKSSPQQLFLAKNALKDKLQGEFDKFLSDAKAFPALTADLQEWVDQQLFNPNQSFFDLSAPRSNFTLSSDKKASLDFIFRFTNFTESVQLLKLPEGVSVVVDSKQSFDYYVNASAQKLLVLPLSLPDYTLGLNYMFDHITLNGKVVNKFSFNPFKTNLNLAFSNVYNGVDVFEAQKNLVGKGKYLNTHVKAEDVKKDVNANIKNQFDIAKIIAELMGKALKEFGNQQEGQPLSFLKVMDKVKEDFEKLFNLVRPGLGKFVKDLIQSSSQAENKITVYKLIFDNKKTILNLLKELSIPELNSSLGLVDVLFDGITDSDGLYERLQSFKDLIVPAVKTNEKTAALSPLIEELLTQKDTYVFDLIQKHKGILTNLLKNFLADFQKSTPFMADQVAIFTELFDNEGAFDLFGEADFVDKIAELFLTKRTVKNGEKIETKDSLLVTSLKSLLGEKVAALGDLLDSYIFKNELLNRSVEVAKAEAKDTKGATDYKKEQAKALKKLFKHIGENTLSKTNLDKITLKEVKNTENVELEETETTLKVKKLDVEYKVELGNFEIKNGLIKAMLEFLPDTKDLETTLDKLLFKGESYKAMKDKYIKEGFPGYGWAKGVVPGAFESIENTFKSAIDKTKSIRDLFGDMLFGNDLSSVKETDSFITLGGSFDIKYGGENLNVLPAYYSLINSEIGYQIIGVDTTIDATKVKVELKNKEYKGKSPAINGQVKLSQSFFNVWTNMFDSITKQIFQKKYEFKDNIQVFARNEDNTSRLELDISDPEQRVIPFAFVDGFGIQLKAVDKNITKEAGNTEPKSPVIQLYEALNKEKDQKQQSKQSPKQLDTKTQLGYLLKLGDNWSKDDYKSLIDDTIINNNYLEASFNSKITVDRLG |  | 2
